Measurements from the nanobody polyreactivity screen of Harvey et al. (2022).

experiment: yeast display, Sf9 membrane polyspecificity reagent, FACS + sequencing; frameworks hold sequencing errors
Outline: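 After 36–48 hours of galactose induction, yeast (Saccharomyces cerevisiae BJ5465) displaying a synthetic nanobody library were stained at 4 °C for 1 hour with 10% biotinylated, detergent-solubilized Sf9 membrane reagent. Streptavidin microbeads enriched the stained cells before FACS sorting into low and high (top ~1%) gates on anti-HA and streptavidin fluorescence. Each clone's polyreactivity label reflects its gate of origin.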

Sequence | polyreactivity (PSR sort gate)
QVQLVESGGGLVQAGGSLRLSCADSGLTFWAYAMGWYRQAPGKARELVAGISSGVSTYYADSVKGRFTISRDNAKNTFYLQMNSLKPEDTEVYYCAAYVYTWYYYDVGYWGQGTQVTVSS | high polyreactivity
QVQLVESGGGLVQAGGSLRLSCADSGQNAMGWYRQAPGKERELVAAISRGGDSTYYADSVKGRFTISRDNAKNSVYLQMNSLKPEDTAVYYCAASYYRRYGYNYWGQGTQVTVSS | high polyreactivity
QVQLVESGGGLVQAGGSLRLSCADSGRHFSFNMGWYRQAPGKERELVAAISRRGGSTYYADSVKGRFTISRDNAKNTVYLQMNSLKPEYTAVYYCAVIPRQTYSGGGYDYWGQGTQVTVSS | high polyreactivity
QVQLVESGGGLVQAGGSLRLSCADSGRIFDFNAMGWYRQAPGKERELVASIDWSGGNTYYADSVKGRFTISRDNAKNTVYVQMNSLKPEDTAVYYCNRDFWGVWEYDYWGQGTQVTVSS | low polyreactivity
QVQLVESGGGLVQAGGSLRLSCADSGRIFFKYAMGWYRQAPGKERELVASISRRGGSTTYADSVKGRFTISRDNAKNTVYLQMNSLKPEDTAVYYCNTVSWWGRNYQDEYYYWGQGTQVTVSS | high polyreactivity
QVQLVESGGGLVQAGGSLRLSCADSGRIFGPYAMGWYRQAPGKERELVAAISGGGRTDYADSVKGRFTISRDNAKNTVYLQMNSLKPEDTAVYYCNADYTYWNGWFATRDYWGQGTQVTVSS | low polyreactivity
QVQLVESGGGLVQAGGSLRLSCADSGRIFRGNGMGWSRQAPGKEREFVDAISRGDGNTYYADSVKGRFTISRDNAKNTVYLQMNSLKPEDTAVYSCAAGGYGYYDFPQYNYWGQGTQVTVSS | low polyreactivity
QVQLVESGGGLVQAGGSLRLSCADSGRTFGPYAMGWYRQAPGKERELVAAITSSGGSTYYADSVKGRFTISRDNAKNTVSLQMNSLKPEDTAVYYCNKLYWRQSQDYDYWGQGTQVTVSS | low polyreactivity
QVQLVESGGGLVQAGGSLRLSCADSGRTIYRNGMGWYRKAPGKEREFVAAINYRGGSTNYADSVKWRFTISRDKAKNTVYLQMNSLKPEDTAVYYCATRIFRAALRFDYWGQGTQVTVSS | high polyreactivity
QVQLVESGGGLVQAGGSLRLSCADSGSIFDGNAMGWYRQAPGKERALVAAISRRGGSTYYADSVKGRFTISRDKAKNTVYLQMNSLKPEDTAVYYCNAYLSYFDGNYWGQGTQVTVSS | high polyreactivity
QVQLVESGGGLVQAGGSLRLSCADSGSIFDVNVMGWYRQAPAKERELVASINISGASTYYADSVKGRLTISRDNAKNTVSLQMNSLKPEDTAVYYCAGTYGVPSFRYGYWGQGTQVTVSS | low polyreactivity
QVQLVESGGGLVQAGGSLRLSCADSGSIFPFYAMGWYRQAPGKERELVASISSGGSTNYADSVKGRFTISRDNAKKTVYLQMNSLKPEDTAVYYCNAVGTFVRYGTDGRDGVNYDYWGQGTQVTVSS | low polyreactivity
QVQLVESGGGLVQAGGSLRLSCADSGSIFQYYVRGCYRQAPGKERELVAAIRRSGTTYYADSVKGRFTISRDNAKNTVYLQMNSLKTEDTAVDYCNKVRCQEPSNYDYWVQGTQVTVSS | low polyreactivity
QVQLVESGGGLVQAGGSLRLSCADSGSIFRDNVMGWYRQAPGKEREFVAAISRRGGITYYADSVKGRFTISRDNAKNTVYLQMNSLKPEDTAVYYCATTGGRQYGYWGQGTQVTVSS | high polyreactivity
QVQLVESGGGLVQAGGSLRLSCADSGSIFSKYAMGWYRQAPGKERELVAAISRSGGRTYYADSVKGRFTISRDNAKNTVYLQMNSLKPEDTAVYYCAADRSYYTWFGGDYWGQGTQVTVSS | high polyreactivity
QVQLVESGGGLVQAGGSLRLSCADSGSIFVYNAMGWYRQAPGKERELVAAITTGGSTNYADSVKGRFTISRDNAKNTVYLQMISLKPEDTAVYYCAVEGYPGRYRDPGDLYYYWGQGTQVTLSS | low polyreactivity
QVQLVESGGGLVQAGGSLRLSCADSGSIFWGNAMGWYRQAPGKERELVAAITRGGSTYYADSVKGRFTISRDNAKNTVYLQMNSLTPEDTAVYYWAVLSRRYAAYDYWGLGTQVTVSS | high polyreactivity
QVQLVESGGGLVQAGGSLRLSCADSGSIFYTYAMGWYRPAPGKERELVAAITRSGGSTNYADSVKGRFTITRDNAKYTVYLQMNSLKPEDNAVYYCAAVFNWAPYFYYYWGQRTQVTVSS | high polyreactivity
QVQLVESGGGLVQAGGSLRLSCADSGSSFPSYAMLWYRQAPGKERELVAAISSSGGRTYYADYVKGRFTISRDNAKNTVYLQMNSLIPVDTAVYYCAADRRKWPTGGYWGEGTQVTVSS | high polyreactivity
QVQLVESGGGLVQAGGSLRLSCADSGSTFPFYAMGWYSHSPGKERELVAAITSGGSTYADYVKGRFTISRDNAKNTVYLQMNSLNPEDTAVYYCAGSWPRWWRFGYWGQGTQVTVSS | low polyreactivity
QVQLVESGGGLVQAGGSLRLSCADSGSTFQANAMGWYRQAPGKERELVATISNDGSTKYADSVKGRFTISRDNAKNTVYLQMNSLKPEDTALYYCAADSARHGRDTYQPEYRNDYWGQGTQVTVSS | low polyreactivity
QVQLVESGGGLVQAGGSLRLSCADSGSTFRYYAMGWYRQAPGKERELVAAITKNGGSTYYADSVKGRFTISRDNAKNTVYLEMNSLKPEDTAVYYCAVQFSYSGWYYVSYYYWGQGTQVTVSS | high polyreactivity

Sequence | polyreactivity (PSR sort gate)
QVQLVESGGGLVQAGGSLRLSCADSGSTFTSNAMRWYRQAPGKEREFVAAINWGGSITYYADSVKGRFTISRDNAKNTVYLQMNSLKPEDTAVYYCAAETYYDTYYPEGDYWGQGTQVTVSS | low polyreactivity
QVQLVESGGGLVQAGGSLRLSCADSGSTFTVYVMGWYRQAPGKETEFVAAITRIGGSTYYADSVKGRFTISRDYAKNTVYLQRNCLKTEDTAVYYCATYHTNSYYQLLYDYWGQGTQVTVSS | low polyreactivity
QVQLVESGGGLVQAGGSLRLSCADSGSTFYHNAMGWYRQAPGKERELDDAIRFSGTSTYYADSVKGRFTISRDNAKNTVYLQMNSLKPEDTAVYYCAAEVSSPAQREFDYWGQGTQVTVSS | low polyreactivity
QVQLVESGGGLVQAGGSLRLSCADSGSTFYRYAMGWYRPAPGKERELVAAISKRGGSTYYADSVKGRFTISRDNAKNTVYLQMNSLKPEDTAVYYCAADPFHYGGGDDYWGQGTQVTVSS | high polyreactivity
QVQLVESGGGLVQAGGSLRLSCADSGSTITYYTMGWYRQAPGKERDLVAAISGSGGRTYYADSVKGRFTISRDNAKNTVYLQMNSLKPEDTAVYYCAAGYQLSRYDYWGQGTQVTVSS | high polyreactivity
QVQLVESGGGLVQAGGSLRLSCADSGSTIYGYAMGWYRQAPGKERELVAAISISGGGTYYADSVKGRFTISRDNAKNSVYLQMNSLKPEDTAVYYCARRYFWGQGTQVTVSS | low polyreactivity
QVQLVESGGGLVQAGGSLRLSCADSGYIFYYNAMGWYRQAPGKERDLVATITSGGSTYYADSLKGRFTISRDNAKNTVYLQMNSLKPEDTAVYYCAAPSQSIRYTYIRSYYWGQGTQVTVSS | low polyreactivity
QVQLVESGGGLVQAGGSLRLSCADSRFNYSYNAMGSYRKAPGKERELVAAISTSGGRTYYADSVKGRFTISRDNAKNTVYLQMNSLKPEDTAVYYCAALSRNQYDPQSYVYWGQGTQVTGSS | high polyreactivity
QVQLVESGGGLVQAGGSLRLSCAGSGFIFNVYAMGWYRQAPGKARELVAAISRSGGSTYYADSVKGRFTISRDNAKNTVYLQLNSLKPEDTAVYYCNARTPPSYYDMGYWGQGTQVTVSS | high polyreactivity
QVQLVESGGGLVQAGGSLRLSCAGSGITFVAYAMGWYRQAPGKDRELVAAISGGGGSTYYADSVKGRFTISRDNAKNTVYLQMNSLKPEDTAVYDCNAEPYTSSGGYRGYDFDYWGQGTQVTVSS | low polyreactivity
QVQLVESGGGLVQAGGSLRLSCAGSGRIFQRNDMGWYRQAPGKARELVAGITGCGGRTYYADSVKGRFTISRDNEKNTVYLQMNSLKPEDTAVYYCAAALWSSRGRVLSRRDYWGQGTQVTVSS | high polyreactivity
QVQLVESGGGLVQAGGSLRLSCAGSGRIFREYPMGAYRHAPGKARELVAAITASGGGTYYADSVKGRFTLSRDNAKNTVYLQMNSLKPEDSAVYYCNAVLAPGGYDYWGQGTQVTVSS | low polyreactivity
QVQLVESGGGLVQAGGSLRLSCAGSGRIFTDYTMGWYRQAPGQERELVAAISYSGGSTYYADSVKGRFTISRDNAKNTVYLQMNSLKPEDTAVYYCNKDYYLHEGYGYWGQGTQVTVSS | low polyreactivity
QVQLVESGGGLVQAGGSLRLSCAGSGSIFGVYDLGWYRQAPGKERELVAVINSNGGSTYYADSVKGRFTISRDNAKNTVYLQMNSLKPEDTAVYYCAADYQSYVYIGYGYWGQGTQVTVSS | low polyreactivity
QVQLVESGGGLVQAGGSLRLSCAGSGSIYSYNAMGWYRQAPGKERELVAAIDWSGGSTYYADSVKGRFTLSRDNAKNTVYLQMNSLKPEDTAVYYEYDYWGQGTQVTVSS | low polyreactivity
QVQLVESGGGLVQAGGSLRLSCAGSGSTFGWYVMGWYRQAPGKERELVASITGSGGSTYYADSVKGRFTISRDNAKNTAYLQMNSLKPEDTAVYYCAADTGWYDDWTHDYWGQGTQVTVSS | low polyreactivity
QVQLVESGGGLVQAGGSLRLSCAPSGFIFDGYTMGWYRQAPGKETELVAAITTSGTSTYYADSVKGRFTISRDNAKNTVYLQMNSLKPEDTAVYYCAARQYRHRVKYYYWGQGTQVTVSS | high polyreactivity
QVQLVESGGGLVQAGGSLRLSCAPSGFIFRYYAMGWYRHAPGKERELVAAISRTSGRTYYADSVKGRFTISRDNAKNTVYLQMNSLKPEYTAVDYCAAVVRNPGTYEYWGQGTQVTVSS | high polyreactivity
QVQLVESGGGLVQAGGSLRLSCAPSGFTFLKNAMGWYRQAPGKERELVAAITGSGGSTYYADSVKGRFTISRDTEKNTVYLQMYSLKPEDTAVYYCNVRRGLRDYEYWGQGTQVTVSS | high polyreactivity
QVQLVESGGGLVQAGGSLRLSCAPSGIIFFAYAMGWYRQAPGKERELVAAISSSGGRTYYADSVKGRFTISRDNAKHTVYLQMNSLKPEETPVYYCNARWHGSFDYWGQGTQVTVSS | low polyreactivity
QVQLVESGGGLVQAGGSLRLSCAPSGITLVRYAMGWYRQAPGKERELVAAISSSGGSTYYADSVKGRFTISRDNAMNPVYLQMNSLKPEDTAVYYCAKRLYYGDPPTYDYWGQGTQVTVSS | high polyreactivity
